The numbers were not newly measured in PMC6615999, which cites them from elsewhere.

In this data set the target is PKR (Homo sapiens) (UniProt P19525).

By Kd is commonly meant a measure of binding affinity in units of concentration. Consider PKR (from UniProt P19525), for which the dissociation constant (Kd) is 500 µM.
